Experimental data taken from patent US20220135640A1, “CORTISTATIN OR AN ANALOGUE THEREOF AS A PHARMACEUTICALLY ACTIVE AGENT IN LATENT FORM” (CONSEJO SUPERIOR DE INVESTIGACIONES CIENTIFICAS (CSIC), priority 2019, published 2022).
Bridge positions count the residues as written; N and C are the ends. Ends that are not written are not given here.

Assays:
[1] = cited from earlier work
[2] = system: somatostatin receptors, sstr1-sstr5; conditions: cited from earlier work
[3] = system: LAP-GS-MMP-GS-CST-29r fusion protein (SP-LAP-L1-MMP-L2-CST29r)
[4] = Stability of cortistatin-29, free versus in LAP-CST, at room temperature; type: physicochemical
Protocol: On the other hand, whereas the amount of recombinant cortistatin-29 decreased in a 82% after 15 minutes at room temperature, the amount of cortistatin-29 in LAP-CST remains stable for at least 7 days.

sstrt2 receptor = sstrt2 receptor (Homo sapiens, UniProt P30874); conditions: cited from earlier work
sstr1 = sstr1 (Homo sapiens, UniProt P30872); conditions: cited from earlier work
sstr4 = sstr4 (Homo sapiens, UniProt P31391); conditions: cited from earlier work
recombinant MMP1 = target: T1, recombinant MMP1 (Homo sapiens, UniProt P03956); assay: Treatment of LAP-CST supernatants with recombinant MMP1, Cortistatin-29 recovered; type: biochemical; conditions: 48 h supernatants treated with recombinant MMP1; diminished from 80 ng; 12 hours later
T1 sequence (P03956 100-469): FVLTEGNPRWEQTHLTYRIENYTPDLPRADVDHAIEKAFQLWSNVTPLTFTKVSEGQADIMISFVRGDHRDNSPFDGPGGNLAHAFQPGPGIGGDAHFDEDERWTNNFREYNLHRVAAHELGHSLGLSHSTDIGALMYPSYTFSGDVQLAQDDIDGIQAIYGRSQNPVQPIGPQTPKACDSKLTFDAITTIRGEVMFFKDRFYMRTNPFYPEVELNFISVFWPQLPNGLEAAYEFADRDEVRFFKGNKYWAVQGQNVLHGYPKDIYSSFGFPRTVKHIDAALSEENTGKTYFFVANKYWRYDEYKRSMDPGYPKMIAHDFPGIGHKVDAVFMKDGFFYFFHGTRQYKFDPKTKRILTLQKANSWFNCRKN
Excerpt: The amount of LAP-MMP-CST-29r peptide in culture supernatants was indirectly determined by measuring the concentration of rat Cortistatin-29 by using a specific ELISA (Phoenix Pharmaceuticals).

[5] = system: dermal fibrosis induced by bleomycin; assay: Bleomycin-induced dermal sclerodermia, local treatment; type: in vivo, C57Bl/6 mice
Protocol: FIG. 2 illustrates the experiments performed wherein sclerodermia was induced by intradermal injection of bleomycin (3 times per week, during four weeks) in an area of […] in the dorsal skin of C57Bl/6 mice. Mice were locally treated around the lesion area with saline (group bleomycin), with cortistatin (group belomycin+CST, 3 time per week, 10 ng each time), with empty LAP vector (Bleomycin+LAP, once a week, 20 pg) or with LAP-CST (Bleomycin+LAP-CST, once a week, 20 pg). Naïve animals without bleomycin were used as basal control reference. After four weeks, lesioned skin area was dissected and processed for histological analysis using Mason Trichromic staining. Skin thickness (from epidermis to hypodermis) was quantified using Image J program. Fibrotic deposits in skin are stained in blue in sections. […] Skin thickness (from epidermis to hypodermis) was quantified using Image J program. […]

[6] = system: bleomycin-induced lung fibrosis; assay: Bleomycin-induced lung fibrosis, nasal inhalation (Example 3); type: in vivo, C57Bl/6 mice; conditions: once a week, 20 pg
Protocol: (§1) FIG. 3 illustrates the experiments performed wherein lung fibrosis was induced by intratracheal injection of bleomycin (50 μg/kg body weight, dissolved in 50 μl of saline) in C57Bl/6 mice. Mice were treated by nasal inhalation of saline (group bleomycin+saline), cortistatin (group belomycin+CST, 3 times per week, 10 ng each time), or LAP-CST (Bleomycin+LAP-CST, once a week, 20 pg). After 18 days, lungs were dissected and processed for histological analysis using Mason Trichromic staining and Sirius Red staining. Lung fibrosis and tissue damage were quantified using Image J program and scored using an established clinical index from 0 to 4 in a blinded fashion. Mortality caused by fibrosis is shown in this figure.
as §1, with “Lung” for “FIG. 3 illustrates the experiments performed wherein lung”, “fashion.” for “fashion. Mortality caused by fibrosis is shown in this figure.”

[7] = system: liver fibrosis induced by CCl4; assay: CCl4-induced liver fibrosis; type: in vivo, C57Bl/6 mice; conditions: systemic, once a week, 100 pg/mouse, 6 weeks
Protocol: FIG. 4 is a quantification of liver fibrosis and tissue damage using Image J program and scored using an established clinical ISHAK index from 0 to 4 in a blinded fashion.
Liver fibrosis was induced by intraperitoneal injection of CCl4 (3:9 in olive oil, 40 μl/mouse, every three days) in C57Bl/6 mice. Mice were treated three times a week with cortistatin (500 ng/mouse) or once a week with LAP-CST (100 pg/mouse). After 6 weeks, liver was dissected and processed for histological analysis using Mason Trichromic staining and Sirius Red staining. Liver fibrosis and tissue damage were quantified using Image J program and scored using an established clinical ISHAK index from 0 to 4 in a blinded fashion (FIG. 4).

[8] = system: bleomycin-induced lung fibrosis; assay: Bleomycin-induced lung fibrosis, comparison of LAP constructs (Example 5); type: in vivo, C57Bl/6 mice; conditions: nasal inhalation, once a week, 20 pg, 18 days
Protocol: FIG. 5. Lung fibrosis and tissue damage were quantified using Image J program and scored using an established clinical index from 0 to 4 in a blinded fashion. Mortality caused by fibrosis is shown in this figure.
Lung fibrosis was induced by intratracheal injection of bleomycin (50 μg/kg body weight, dissolved in 50 μl of saline) in C57Bl/6 mice. Mice were treated once a week by nasal inhalation of 20 pg of empty LAP (A), LAP containing only cortistatin (B), LAP containing cortistatin and linkers LAP-L1L2-CST but not MMP site (C), or LAP containing cortistatin, linkers and MMP site (D). After 18 days, lungs were dissected and processed for histological analysis using Mason Trichromic staining and Sirius Red staining. Lung fibrosis and tissue damage were quantified using Image J program and scored using an established clinical index from 0 to 4 in a blinded fashion.

sstrt2 receptor, sequence (P30874 whole entry): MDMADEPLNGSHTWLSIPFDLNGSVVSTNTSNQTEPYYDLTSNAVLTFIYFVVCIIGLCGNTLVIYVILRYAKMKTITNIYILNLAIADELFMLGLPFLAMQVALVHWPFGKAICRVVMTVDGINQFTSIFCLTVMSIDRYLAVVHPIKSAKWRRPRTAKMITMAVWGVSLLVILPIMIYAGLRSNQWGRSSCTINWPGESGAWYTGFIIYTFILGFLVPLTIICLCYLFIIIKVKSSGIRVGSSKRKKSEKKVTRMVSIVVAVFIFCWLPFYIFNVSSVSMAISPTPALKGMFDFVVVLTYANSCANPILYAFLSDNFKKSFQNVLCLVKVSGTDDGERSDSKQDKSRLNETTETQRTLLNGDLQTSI
sstr4, sequence (P31391 whole entry): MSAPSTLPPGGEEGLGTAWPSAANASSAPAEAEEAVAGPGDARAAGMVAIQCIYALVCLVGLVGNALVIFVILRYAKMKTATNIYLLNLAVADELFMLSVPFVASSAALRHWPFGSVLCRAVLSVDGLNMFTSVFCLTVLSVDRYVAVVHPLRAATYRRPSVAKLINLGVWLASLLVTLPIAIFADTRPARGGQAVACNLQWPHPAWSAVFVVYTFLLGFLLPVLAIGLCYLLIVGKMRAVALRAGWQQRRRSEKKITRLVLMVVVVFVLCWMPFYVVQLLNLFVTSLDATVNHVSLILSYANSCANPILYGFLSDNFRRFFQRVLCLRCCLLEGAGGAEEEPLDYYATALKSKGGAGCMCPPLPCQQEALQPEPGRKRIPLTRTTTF
sstr1, sequence (P30872 whole entry): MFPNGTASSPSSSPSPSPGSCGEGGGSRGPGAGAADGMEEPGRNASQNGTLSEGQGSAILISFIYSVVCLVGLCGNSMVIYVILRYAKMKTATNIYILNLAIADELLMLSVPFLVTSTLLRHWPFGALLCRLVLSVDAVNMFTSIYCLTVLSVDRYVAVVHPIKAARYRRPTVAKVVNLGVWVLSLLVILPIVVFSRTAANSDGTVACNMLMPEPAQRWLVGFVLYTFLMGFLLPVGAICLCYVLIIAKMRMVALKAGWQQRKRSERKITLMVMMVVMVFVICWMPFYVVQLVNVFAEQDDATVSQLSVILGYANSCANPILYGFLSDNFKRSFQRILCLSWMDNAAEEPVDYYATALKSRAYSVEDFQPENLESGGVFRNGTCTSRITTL

For cortistatin, the blood half-life [1] is given as “a few minutes” and the “affinity to somatostatin receptors” value [2] is given as “nanomolar affinity”.

In the case of recombinant MMP1, the “amount of Cortistatin-29 (indirectly measuring LAP-CST) recovered from the culture, 12 hours after MMP1 treatment” value [3] is reported as “diminished from 80 ng to 20 ng, 12 hours later” and the “amount of Cortistatin-29 (indirectly measuring LAP-CST) recovered from the culture, before MMP1 treatment” value [3] is reported as “diminished from 80 ng to 20 ng, 12 hours later”.

In the case of “cortistatin-29: rat sequence of cortistatin, 29 amino acids (GenBank: EDL81150.1) (QERPPLQQPPHRDKKPCKNFFWKTFSSCK-OH; disulfide 17-28 (inferred); ends not checked; UniProt Q62949 84-112, looked up) [reference compound]”, the “decrease of the amount of cortistatin-29” value ([4]; after 15 minutes at room temperature) is reported as 82%.

In the case of `C[C@@H](O)[C@@H]1NC(=O)[C@H](CCCCN)NC(=O)[C@@H](Cc2c[nH]c3ccccc23)NC(=O)[C@H](Cc2ccccc2)NC(=O)[C@@H](NC(=O)[C@H](N)Cc2ccccc2)CSSC[C@@H](C(=O)N[C@H](CO)[C@@H](C)O)NC1=O` [octreotide], the “binding to the sstrt2 receptor” value (sstrt2 receptor) is listed as “keeps binding”, the “affinity to the sstr1 receptor” value (sstr1) is listed as “completely loses its affinity” and the “affinity to the sstr4 receptor” value (sstr4) is listed as “completely loses its affinity”.

B1: LAP-CST: fusion protein of LAP of TGFβ-1 (Met1-Ser273), MMP cleavage site PLGLWA flanked by GGGGS linkers, and rat cortistatin-29 (protein)
chain: MPPSGLRLLPLLLPLLWLLVLTPGRPAAGLSTCKTIDMELVKRKRIEAIRGQILSKLRLASPPSQGEVPPGPLPEAVLALYNSTRDRVAGESAEPEPEPEADYYAKEVTRVLMVETHNEIYDKFKQSTHSIYMFFNTSELREAVPEPVLLSRAELRLLRLKLKVEQHVELYQKYSNNSWRYLSNRLLAPSDSPEWLSFDVTGVVRQWLSRGGEIEGFRLSAHCSCDSRDNTLQVDINGFTTGRRGDLATIHGMNRPFLLLMATPLERAQHLQSEFGGGGSPLGLWAGGGGSAAAQERPPLQQPPHRDKKPCKNFFWKTFSSCK
modifications: Fusion peptide
In the case of B1, the “amount of Cortistatin-29 (indirectly measuring LAP-CST) recovered from the culture” value (recombinant MMP1) is reported as 20 ng, the “time the amount of cortistatin-29 remains stable” value ([4]; cortistatin-29 in LAP-CST) is reported as “at least 7 days” and the “dermal fibrosis (skin thickness, Mason Trichromic staining)” value ([5]; local, once a week, 20 pg, four weeks, compared with LAP alone, as effective as cortistatin 10 ng 3 times per week) is reported as “effective in reducing dermal fibrosis”. For the same molecule, the “effectiveness of a single injection relative to recombinant cortistatin” value ([5]; weekly 20 pg versus cortistatin 3 times per week at 500-fold higher concentration) was “at least 1,500 times”, the “lung fibrosis and damage” value ([6]; 18 days, as effective as cortistatin 3 times per week at 500-fold higher dose) was “significantly reduced lung fibrosis and damage” and the survival ([6]; bleomycin alone causes 80% of mortality) was “dramatically increased survival”. The survival ([7]; mortality of 50% in untreated mice) was 100%, the liver fibrotic area ([7]; similar to cortistatin 500 ng/mouse three times a week) was “significantly reduced liver fibrotic area” and the “protection versus bleomycin-induced lung fibrosis and mortality” value [8] was “protected”.
